Reference: the supplement of paper PMC10567573
± gives the standard deviation.

Test: protein stability index of a GFP-peptide fusion (GPS, HEK-293T) (PSI 1-6); higher = more stable
[1] = treatment: DMSO, c terminus: a fixed tail appended
[2] = treatment: MLN4924 1 uM, 8 h, c terminus: a fixed tail appended
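Also: 24-mer peptide tiles fused after GFP, lentivirally expressed, FACS-sorted into six equal bins by GFP/DsRed ratio, decoded by Illumina sequencing, PSI is the read-weighted mean bin number.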

Sequence	protein stability index [1]	protein stability index [2]	protein stability index (treatment: DMSO, c terminus: native)	protein stability index (treatment: MLN4924 1 uM, 8 h, c terminus: native)
VKEAPAPTPTSLEVSSPPDTTEEV [PDZK1]	5.57 ± 0.25	5.49 ± 0.3		
VKILEPKTKEVQHNCQLHRISFCA [GULP1]	2.33 ± 0.22	2.25 ± 0.17		
VLAEGDNASRSLYPDAEDPQLGLD [PSD2]	5.52 ± 0.25	5.34 ± 0.15		
VLDLRKNSHQDFWTVWSGNRASLY [PRAME]	2.19 ± 0.3	2.3 ± 0.19		
VLEGPAPWGFRLQGGKDFNVPLSI [PDLIM7]	2.31 ± 0.12	2.44 ± 0.17		
VLLAVLPVLLLQITVGLVFLCLQY [MOG]	3.18 ± 0.24	3.13 ± 0.32		
VLMCGFPFLLLFLGNFFTTLRVVH [TMEM120A]	2.95 ± 0.24	3.23 ± 0.48		
VLRFLPAFVRMKQLIEEGYVGEPL [GFOD1]	2.2 ± 0.25	2.17 ± 0.13		
VLRHFHLLSDGSNTLSVSYKKGRM [SLC6A17]	2.12 ± 0.39	2.61 ± 0.17		
VNLYLGRSHFLWKEPATMSWLEEN [TCF25]	2.36 ± 0.53	2.54 ± 0.56		
VPRTEAPAPASSTPQEPWPGPTAP [PDLIM7]	4.98 ± 0.22	5.2 ± 0.27		
VRHNLGDTRLGQVSALPLPPAMKR [SPSB2]	3.89 ± 0.097	3.98 ± 0.33		
VRTAAIKAMLQLHERGLKLHQTIY [INTS4]	2.58 ± 0.35	2.44 ± 0.33		
VRYLNAYTGIVLLRCRKEFYQLVW [POP5]	1.94 ± 0.34	2.46 ± 0.74		
VSLDISPDLPFQIKPSENHYSLLT [PCDHGC5]	2.22 ± 0.31	2.46 ± 0.17		
VSRRTSEACMTHLHYKWIPVEDSH [DUSP5]	3.04 ± 0.34	3.08 ± 0.21		
VSVRVQPRGRAHLLPNPYQQDFLG [C22orf15]	2.2 ± 0.18	2.13 ± 0.35		
VTKITLESFLAWKKRKRQEKIDKL [ZC3H15]	2.78 ± 0.81	2.6 ± 0.47		
VTLEASRENSKPRAILKPRKVCVG [PPP2R2B]	3.54 ± 0.23	3.8 ± 0.32		
VTSTSQSPHSPDSSQSSLAQEEEE [DDIT3]	5.53 ± 0.1	5.64 ± 0.12		
VVGWFVLFYKPGIVLLLALAKYLK [GULP1]	2.25 ± 0.41	2.37 ± 0.56		

Sequence	protein stability index [1]	protein stability index [2]	protein stability index (treatment: DMSO, c terminus: native)	protein stability index (treatment: MLN4924 1 uM, 8 h, c terminus: native)
VVLGSGGVGKSALTVQFVQGIFVE [RAP1B]	2.99 ± 0.05	2.96 ± 0.44		
VYLLGNPVVWWLNLLSIALYLLSG [POMT2]	3.31 ± 0.95	2.96 ± 0.56		
VYPRPPEPREFSSRNFGVRNQGNF [ZC2HC1C]	3.24 ± 0.15	3.24 ± 0.29		
WAPASEGLKPGPEDGPGKEEAPEL [SERTAD1]	5.5 ± 0.2	5.46 ± 0.41		
WASCLQYDFDTQYAFVGDYSGQIT [WDFY1]	2.43 ± 0.39	2.2 ± 0.21		
WEELLTMKVEAKSHLQWQESRLKR [ZSCAN9]	3.65 ± 0.18	3.59 ± 0.37		
WIRICRPGSIIGPQQHFLEEKQAS [CDC14A]	2.18 ± 0.46	2.36 ± 0.48		
WMEILILGVVYRSLSFEDELVYAD [ESRRG]	3.77 ± 0.27	2.68 ± 0.25		
WNITKLSIEYDSEPFGKERDAAIK [CRY1]	2.9 ± 0.29	2.9 ± 0.28		
WNQILDPWVYILLRKAVLKNLYKL [PTGFR]	2.7 ± 1.1	2.03 ± 0.93		
WREFHYIQSKLGIVSLLLGTIHAL [STEAP1]	2.96 ± 0.56	3.15 ± 0.69		
WVLLFTPCSFVCWYRPMYKAFRSD [SCAMP3]	2.92 ± 0.31	3 ± 0.37		
YDAYRTDLEELSLGPRDAGTRGRL [ARFIP2]	4.1 ± 0.29	4.35 ± 0.15		
YDDVRRCCSSADICPKCWTLMTMA [PRIM1]	3.34 ± 0.17	3.4 ± 0.36		
YDITKEETFSTLKNWVKELRQHGP [RAB22A]	2.85 ± 0.49	3.24 ± 0.16		
YFEGAPFPHPLWLRDTYKLWVPQP [PWWP2B]	2.05 ± 0.24	2.18 ± 0.3		
YGHCTAGGEGVEVELLHNTSYTRQ [SCNN1D]	3.71 ± 0.22	3.8 ± 0.25		
YGYLPEDKVLGTFEFDETSFWNSS [KLHDC2]	2.66 ± 0.25	2.98 ± 0.34		
YILDNETNFVVQVSVFIGVLIDLW [CLPTM1]	2.74 ± 0.77	2.59 ± 0.7		
YKKGIIRKPDISQRLVYQFVHPI [SPDEF]			2.43 ± 0.48	2.63 ± 0.4
YKPNPQIYVKLIEECTDLQKEGEF [OAS1]	3.54 ± 0.28	3.53 ± 0.19		

Sequence	protein stability index [1]	protein stability index [2]	protein stability index (treatment: DMSO, c terminus: native)	protein stability index (treatment: MLN4924 1 uM, 8 h, c terminus: native)
YLAFAASNVRGSLNVNLNSVVLRR [DUSP5]	2.41 ± 0.24	2.69 ± 0.24		
YLATEYLETHFRDVSSTEEFLELS [GAN]	3.13 ± 0.29	3.2 ± 0.35		
YLESETETTEAIDDEGWLHSGDLG [ACSBG2]	5.25 ± 0.14	5.497 ± 0.035		
YLIIRTLGKLIPRHQSIFKSNGFF [CDKL4]	2.74 ± 1.3	2.72 ± 1.8		
YLRDSSPAPCADGPAGGLADLSSG [PWWP2B]	4.78 ± 0.2	4.8 ± 0.11		
YNLSPEADESVLWQLFGPFGAVTN [ELAVL3]	2.55 ± 0.28	2.51 ± 0.091		
YNPPKDDGSTYKIELEGISVMVMR [GAN]	2.14 ± 0.28	2.24 ± 0.22		
YPASTSQDSFEAAGNSTSGSRAGA [KCNA3]	5.21 ± 0.24	5.2 ± 0.35		
YPDAEDPQLGLDGPGEPDVRDGFS [PSD2]	5.51 ± 0.31	5.46 ± 0.084		
YPPFWDEDQHKLYQQIKAGAYDFP [CAMK2B]	2.85 ± 0.35	3.11 ± 0.056		
YQELMSLKLALDMEIATYRKLLES [KRT71]	2.38 ± 0.32	2.16 ± 0.22		
YQSGGRLKRPVNVPFDIFTEEVKF [KCNA4]	2.42 ± 0.26	2.8 ± 0.57		
YRFASAGDDGIVVVWNAQTGEKLL [WDR41]	2.43 ± 0.17	2.75 ± 0.1		
YSCPATNECEITKRRRKSCQACRF [ESRRG]	3.59 ± 0.51	4.15 ± 0.29		
YSTRYGSPKRQLQFYRNLGKSGLR [KCNAB2]	2.59 ± 0.18	2.69 ± 0.19		
YTVSATAPGYDPETVTVTVGPAEP [CPN1]	3.61 ± 0.13	3.83 ± 0.39		
YVQTVDFMRTDNTCVNLLLEASNY [KLHL13]	2.6 ± 0.71	2.6 ± 0.66		
YVRDRADLNKDKPVIPAAALAGYT [ETS1]	2.44 ± 0.6	3.35 ± 0.78		
YVRRLDFFEKPDYDYLRKLFTDLF [CSNK1G3]	2.45 ± 0.52	2.06 ± 0.27		
